How the values were obtained:
[1] = target: human αVβ3 integrin, purified (human) (UniProt P06756); assay: saturation ELISA on αvβ3-coated plate, n = 6
[2] = target: human αvβ3 integrin on cells (human) (UniProt P06756); assay: 125-I antibody saturation binding on M21 cells
[3] = target: human αvβ3 integrin on cells (human) (UniProt P06756); assay: 125-I antibody saturation binding on A375S2 cells

Chain of human αvβ3 integrin on cells (human) (P06756 31-1048, chain 1 of 2): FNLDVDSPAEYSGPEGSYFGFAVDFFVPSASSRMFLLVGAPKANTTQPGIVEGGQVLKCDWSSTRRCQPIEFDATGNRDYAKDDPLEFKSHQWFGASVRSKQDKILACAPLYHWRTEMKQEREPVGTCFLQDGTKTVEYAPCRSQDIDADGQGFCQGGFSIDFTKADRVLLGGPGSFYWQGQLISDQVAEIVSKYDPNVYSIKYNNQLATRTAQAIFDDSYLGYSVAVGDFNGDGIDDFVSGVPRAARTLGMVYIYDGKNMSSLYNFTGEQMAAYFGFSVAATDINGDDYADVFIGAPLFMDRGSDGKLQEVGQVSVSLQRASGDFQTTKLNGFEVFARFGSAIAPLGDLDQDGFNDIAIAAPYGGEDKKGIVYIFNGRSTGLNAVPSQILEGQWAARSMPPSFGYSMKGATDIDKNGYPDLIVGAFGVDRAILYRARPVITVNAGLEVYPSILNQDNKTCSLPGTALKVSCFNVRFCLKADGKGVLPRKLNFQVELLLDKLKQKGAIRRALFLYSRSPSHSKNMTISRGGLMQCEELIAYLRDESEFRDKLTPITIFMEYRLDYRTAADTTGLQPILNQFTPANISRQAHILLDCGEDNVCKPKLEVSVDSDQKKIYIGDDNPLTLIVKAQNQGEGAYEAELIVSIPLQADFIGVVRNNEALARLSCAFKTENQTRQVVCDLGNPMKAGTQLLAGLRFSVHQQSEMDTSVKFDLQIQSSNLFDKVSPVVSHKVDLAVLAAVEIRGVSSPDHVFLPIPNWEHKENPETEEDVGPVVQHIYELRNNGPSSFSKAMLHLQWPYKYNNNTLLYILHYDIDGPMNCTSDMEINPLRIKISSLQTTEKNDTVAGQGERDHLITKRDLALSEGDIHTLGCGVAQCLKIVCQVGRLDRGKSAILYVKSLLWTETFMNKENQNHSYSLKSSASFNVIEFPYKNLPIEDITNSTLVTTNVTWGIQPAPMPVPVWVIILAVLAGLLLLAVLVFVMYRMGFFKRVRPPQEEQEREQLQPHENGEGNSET
Chain of human αvβ3 integrin on cells (human) (P05106 27-788, chain 2 of 2, further chain): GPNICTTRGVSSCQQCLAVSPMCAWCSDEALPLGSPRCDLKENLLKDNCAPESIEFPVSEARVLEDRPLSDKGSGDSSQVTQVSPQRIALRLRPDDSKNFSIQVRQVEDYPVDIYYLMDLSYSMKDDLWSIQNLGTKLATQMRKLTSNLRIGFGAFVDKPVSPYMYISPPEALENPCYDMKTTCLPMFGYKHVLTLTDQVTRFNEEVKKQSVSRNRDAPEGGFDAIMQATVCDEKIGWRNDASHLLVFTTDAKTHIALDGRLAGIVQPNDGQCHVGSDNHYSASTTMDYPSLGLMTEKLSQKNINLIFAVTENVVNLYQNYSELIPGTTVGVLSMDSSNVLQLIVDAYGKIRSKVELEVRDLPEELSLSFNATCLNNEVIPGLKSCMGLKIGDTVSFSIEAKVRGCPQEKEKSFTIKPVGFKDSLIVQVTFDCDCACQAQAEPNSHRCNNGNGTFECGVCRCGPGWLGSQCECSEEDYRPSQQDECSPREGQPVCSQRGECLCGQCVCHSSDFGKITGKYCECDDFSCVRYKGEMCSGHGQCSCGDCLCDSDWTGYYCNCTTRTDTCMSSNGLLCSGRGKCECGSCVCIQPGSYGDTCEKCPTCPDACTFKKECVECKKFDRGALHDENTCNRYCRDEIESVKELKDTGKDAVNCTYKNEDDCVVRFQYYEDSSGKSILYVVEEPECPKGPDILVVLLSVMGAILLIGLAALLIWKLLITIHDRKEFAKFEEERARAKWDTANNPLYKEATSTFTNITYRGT
Chain of human αVβ3 integrin, purified (human) (P06756 31-1048, form in doubt, chain 1 of 2): as the sequence (P06756 31-1048, chain 1 of 2) above
Chain of human αVβ3 integrin, purified (human) (P05106 27-788, form in doubt, chain 2 of 2, further chain): as the sequence (P05106 27-788, chain 2 of 2, further chain) above

Kd [1]: 0.00025 µM | Kd [2]: 0.01 µM | Receptors per cell (receptors per cell) [2]: 660000 | Kd [3]: 0.022 µM | Receptors per cell (receptors per cell) [3]: 370000
B1: abciximab (Fab, INN chains, looked up, V domains shown)
VH: EVQLQQSGTVLARPGASVKMSCEASGYTFTNYWMHWVKQRPGQGLEWIGAIYPGNSDTSYIQKFKGKAKLTAVTSTTSVYMELSSLTNEDSAVYYCTLYDGYYVFAYWGQGTLVTVSA
VL: EIVLTQSPVTLSVTPGDSVSLSCRASRDISNNLHWFQQTSHESPRLLIKYASQSMSGIPSRFSGSGSGTDFTLSINSVETEDFGMYFCQQTNSWPYTFGGGTKLEIK
modifications: Fab 125I label

Source: US20090217392A1
